Results published in US20250026843A1 (ANHUI BIOX VISION BIOLOGICAL TECHNOLOGY, published 2025).
Values belong to the binder of their own block, whether it stands above or below them.

Key:
[1] = molecular target: T1, human CLDN18.1 expressed on the cell surface of HEK293 cells (human, UniProt P56856 1-261); test: flow cytometry on 18.1-HEK293 cells
T1 construct: whole, on cells
T1 sequence (looked up): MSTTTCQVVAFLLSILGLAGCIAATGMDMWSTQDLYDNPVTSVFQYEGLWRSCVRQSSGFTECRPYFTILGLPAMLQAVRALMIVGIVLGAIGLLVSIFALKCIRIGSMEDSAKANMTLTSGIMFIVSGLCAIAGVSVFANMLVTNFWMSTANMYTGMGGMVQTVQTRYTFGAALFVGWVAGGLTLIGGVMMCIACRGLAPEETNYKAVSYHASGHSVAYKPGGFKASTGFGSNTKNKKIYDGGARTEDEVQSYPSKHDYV
Procedure: (§1) After culturing at 4° C. for 30 min, the cells were washed and added with 100 μL of 1:300 diluted PE-labeled Goat F(ab′)₂ Anti-human Fc (PE) and cultured at 4° C. for 30 min. The cells were then washed and the binding of the bispecific antibody to CLDN18.1 molecules expressed on the surface of HEK293 cells was detected through flow cytometry.

[2] = molecular target: T2, human CLDN18.2 expressed on the cell surface of HEK293 cells (human, UniProt P56856-2 1-261); test: flow cytometry on 18.2-HEK293 cells
T2 construct: whole, on cells
T2 sequence (looked up): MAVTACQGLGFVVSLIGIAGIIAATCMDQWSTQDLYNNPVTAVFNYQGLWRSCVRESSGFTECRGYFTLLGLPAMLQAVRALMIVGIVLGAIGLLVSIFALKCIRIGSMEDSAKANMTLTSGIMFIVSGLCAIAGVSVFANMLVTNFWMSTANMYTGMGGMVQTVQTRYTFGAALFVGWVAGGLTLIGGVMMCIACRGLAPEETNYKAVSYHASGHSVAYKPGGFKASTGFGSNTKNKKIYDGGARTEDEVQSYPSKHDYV
Procedure: as §1, with “diluted” for “diluted PE-labeled”, “cultured” for “cultured at 4° C.”, “CLDN18.2” for “CLDN18.1 molecules”

[3] = molecular target: T3, P17-His fusion protein (extracellular domain of human CD40 with a His tag) (human, UniProt P25942 21-193); test: ELISA, P17-His coated on plate, anti-human Fc-HRP detection
T3 construct: range 21-193; not shown: His tag
T3 sequence (P25942 21-193 limits assumed): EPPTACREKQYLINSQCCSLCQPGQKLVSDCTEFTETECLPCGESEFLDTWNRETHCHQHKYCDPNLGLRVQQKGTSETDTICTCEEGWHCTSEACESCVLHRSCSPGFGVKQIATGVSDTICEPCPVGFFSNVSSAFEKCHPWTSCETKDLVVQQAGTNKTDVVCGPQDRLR
Procedure: The obtained 4 bispecific antibodies were detected for affinity against the extracellular domain of human CD40 (Uniprot: positions 21 to 193 of P25942) through ELISA. The extracellular domain of human CD40 carried a His tag, also referred to herein as a P17-His fusion protein.
2 μg/mL of the P17-His fusion protein was coated onto a 96-well ELISA plate at 30 μL per well at 4° C. overnight. The next day, after encapsulating in 5% PBSM (PBS+5% Milk) at room temperature for 2 h, serially diluted (20 nM in the first well, 10-fold dilution in the second well, 3-fold dilution in the third to seventh wells, and 4-fold dilution in the seventh to eighth wells) anti-CD40×CLDN18.2 bispecific antibody, positive control APX005 (sequence derived from Apexigen Inc. US20120301488A1, prepared in the laboratory), or isotype IgG1 negative control were added. After culturing at room temperature for 1 h, washed 3 times with PBST (PBS+0.05% Tween-20), and then 30 μL of Goat-anti-human-Fc-HRP (abcam, ab97225) was added. After culturing at room temperature for 1 h, washed 3 times with PBST (PBS+0.05% Tween-20), and TMB colorimetric solution was added for color development for 5 to 30 min. After termination, OD450 was detected through a microplate reader (Beckman Coulter), and the results were analyzed and plotted through Graphpad 7.0 to evaluate the binding of the bispecific antibody to the P17-His fusion protein.

B1: C8-WT-NA3S-HC (bispecific antibody, human IgG1, kappa, N297Q)
heavy: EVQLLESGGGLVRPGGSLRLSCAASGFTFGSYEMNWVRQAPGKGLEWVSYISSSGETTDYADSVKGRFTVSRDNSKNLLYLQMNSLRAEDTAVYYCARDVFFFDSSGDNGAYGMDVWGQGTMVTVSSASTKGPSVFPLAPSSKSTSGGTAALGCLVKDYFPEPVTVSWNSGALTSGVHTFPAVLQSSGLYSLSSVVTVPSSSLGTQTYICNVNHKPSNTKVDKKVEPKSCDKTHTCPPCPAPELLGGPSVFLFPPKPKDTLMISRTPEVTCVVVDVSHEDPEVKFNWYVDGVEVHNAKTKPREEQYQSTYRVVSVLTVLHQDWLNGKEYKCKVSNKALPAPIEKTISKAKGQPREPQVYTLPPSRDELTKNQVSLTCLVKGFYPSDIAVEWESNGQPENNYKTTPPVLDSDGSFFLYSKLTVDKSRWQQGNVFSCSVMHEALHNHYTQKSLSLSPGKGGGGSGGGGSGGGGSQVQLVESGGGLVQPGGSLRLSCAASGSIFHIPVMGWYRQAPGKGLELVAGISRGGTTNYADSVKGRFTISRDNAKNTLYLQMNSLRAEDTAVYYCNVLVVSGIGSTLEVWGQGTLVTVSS
light: DIQLTQSPSSLTASVGDRVTITCRSSQGIRSSLAWYQQKPGKPPKLLIYGASSLEGGVPSRFSGSGSGTDFTLTISSLQPEDFATYYCQQLNSFPSTFGQGTKLEIKRTVAAPSVFIFPPSDEQLKSGTASVVCLLNNFYPREAKVQWKVDNALQSGNSQESVTEQDSKDSTYSLSSTLTLSKADYEKHKVYACEVTHQGLSSPVTKSFNRGEC
notes: Fc is hIgG1 N297Q; also called anti-CD40×CLDN18.2 bispecific antibody; bispecific antibody of the present invention
binding result [1]: no binding (tested: 115.6 nM highest concentration tested) | binding result [2]: binds | EC50 [3]: 0.11 nM

B2: C8-2-NA3S-HC (bispecific antibody, human IgG1, kappa, N297Q)
heavy: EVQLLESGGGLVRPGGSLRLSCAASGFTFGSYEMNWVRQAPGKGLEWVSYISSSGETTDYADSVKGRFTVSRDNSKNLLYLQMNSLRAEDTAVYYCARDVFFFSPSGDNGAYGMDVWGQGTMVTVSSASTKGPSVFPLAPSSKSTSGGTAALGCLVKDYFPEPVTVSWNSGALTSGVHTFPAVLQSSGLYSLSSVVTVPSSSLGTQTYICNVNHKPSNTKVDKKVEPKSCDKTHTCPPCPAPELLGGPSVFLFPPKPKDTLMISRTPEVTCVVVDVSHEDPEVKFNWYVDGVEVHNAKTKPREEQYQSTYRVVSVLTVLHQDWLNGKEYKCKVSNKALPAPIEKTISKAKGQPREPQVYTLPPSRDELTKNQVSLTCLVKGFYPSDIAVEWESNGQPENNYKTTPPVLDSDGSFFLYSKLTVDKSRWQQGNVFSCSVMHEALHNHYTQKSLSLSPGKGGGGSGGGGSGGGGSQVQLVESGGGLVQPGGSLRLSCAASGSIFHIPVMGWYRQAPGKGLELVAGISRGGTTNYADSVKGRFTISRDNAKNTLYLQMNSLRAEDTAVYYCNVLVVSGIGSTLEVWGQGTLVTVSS
light: B1 light
notes: as for B1
binding result [1]: no binding (tested: 115.6 nM highest concentration tested) | binding result [2]: binds | EC50 [3]: 0.127 nM

B4: C8-10-NA3S-HC (bispecific antibody, human IgG1, kappa, N297Q)
heavy: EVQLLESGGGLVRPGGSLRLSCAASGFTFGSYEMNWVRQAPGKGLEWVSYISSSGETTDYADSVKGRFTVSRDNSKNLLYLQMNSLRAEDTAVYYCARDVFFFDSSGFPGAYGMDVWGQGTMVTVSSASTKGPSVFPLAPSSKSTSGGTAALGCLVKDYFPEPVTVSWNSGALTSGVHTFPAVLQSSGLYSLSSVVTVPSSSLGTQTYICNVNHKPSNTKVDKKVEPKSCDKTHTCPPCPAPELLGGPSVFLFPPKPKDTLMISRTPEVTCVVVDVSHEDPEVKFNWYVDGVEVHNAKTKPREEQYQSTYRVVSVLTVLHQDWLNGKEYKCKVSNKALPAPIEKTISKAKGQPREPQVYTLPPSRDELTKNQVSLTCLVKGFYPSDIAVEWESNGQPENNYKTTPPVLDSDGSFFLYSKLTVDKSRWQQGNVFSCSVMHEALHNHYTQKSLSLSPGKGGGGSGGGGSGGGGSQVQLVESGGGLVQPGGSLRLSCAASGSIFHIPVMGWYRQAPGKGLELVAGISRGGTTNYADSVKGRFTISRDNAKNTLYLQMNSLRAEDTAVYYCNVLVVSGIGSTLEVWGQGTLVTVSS
light: B1 light
notes: as for B1
binding result [1]: no binding (tested: 115.6 nM highest concentration tested) | binding result [2]: binds | EC50 [3]: 0.104 nM

Continued by falling EC50 [3], values first:

binding result [2]: binds | EC50 [3]: 0.102 nM
B3: C8-6-NA3S-HC (bispecific antibody, human IgG1, kappa, N297Q)
heavy: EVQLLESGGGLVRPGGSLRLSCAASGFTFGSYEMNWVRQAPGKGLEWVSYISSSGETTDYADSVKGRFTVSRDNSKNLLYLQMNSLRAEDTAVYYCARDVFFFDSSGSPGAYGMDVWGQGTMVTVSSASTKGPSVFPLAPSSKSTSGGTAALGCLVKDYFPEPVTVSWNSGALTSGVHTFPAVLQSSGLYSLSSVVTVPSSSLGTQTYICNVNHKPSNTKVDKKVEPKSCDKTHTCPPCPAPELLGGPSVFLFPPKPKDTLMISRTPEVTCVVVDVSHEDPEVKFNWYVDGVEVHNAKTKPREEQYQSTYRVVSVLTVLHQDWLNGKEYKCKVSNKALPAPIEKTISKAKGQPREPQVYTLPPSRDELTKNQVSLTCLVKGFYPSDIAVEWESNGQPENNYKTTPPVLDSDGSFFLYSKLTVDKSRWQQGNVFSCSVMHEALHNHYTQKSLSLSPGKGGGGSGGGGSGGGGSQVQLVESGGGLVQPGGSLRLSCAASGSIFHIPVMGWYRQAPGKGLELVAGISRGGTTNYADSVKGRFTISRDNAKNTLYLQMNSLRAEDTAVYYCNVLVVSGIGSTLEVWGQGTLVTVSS
light: B1 light
notes: as for B1
binding result [1]: no binding (tested: 115.6 nM highest concentration tested)

EC50 [3]: 0.0612 nM
B5: APX005 (antibody, V domains shown)
VH: QVQLVESGGGVVQPGRSLRLSCAASGFSFSSTYVCWVRQAPGKGLEWIACIYTGDGTNYSASWAKGRFTISKDSSKNTVYLQMNSLRAEDTAVYFCARPDITYGFAINFWGPGTLVTVSS
VL: DIQMTQSPSSLSASVGDRVTIKCQASQSISSRLAWYQQKPGKPPKLLIYRASTLASGVPSRFSGSGSGTDFTLTISSLQPEDVATYYCQCTGYGISWPIGGGTKVEIK
